From PMC6731260 come the findings set out here.

Data set [1] can be described thus: CHX chase, FLAG-ESRRB immunoblot, mESCs. Conditions: glycan lost; control: DMSO. On the technique in general: A western blot detects proteins with antibodies after separation by electrophoresis.
Data set [2] is described as follows: ESRRB-responsive element luciferase reporter, HEK293T. Conditions: glycan lost. On the technique in general: A reporter such as luciferase makes a cellular process visible.
A short description of data set [3]: CHX 12 h, immunoblot, HEK293T. The settings on record: glycan lost; control: EGFP-ESRRB wild type.
A short description of data set [4]: CHX chase up to 12 h, immunoblot, mESCs. The settings on record: glycan lost; control: FLAG-ESRRB wild type.
Data set [5] can be described thus: GFP immunoprecipitation, ubiquitin blot, HEK293T. The settings on record: glycan lost; control: wild type.

B1: ESRRB: Ac45SGlcNAc (OGT inhibitor) (protein)
parent chain: MSSEDRHLGSSCGSFIKTEPSSPSSGIDALSHHSPSGSSDASGGFGIALSTHANGLDSPPMFAGAGLGGNPCRKSYEDCTSGIMEDSAIKCEYMLNAIPKRLCLVCGDIASGYHYGVASCEACKAFFKRTIQGNIEYNCPATNECEITKRRRKSCQACRFMKCLKVGMLKEGVRLDRVRGGRQKYKRRLDSENSPYLNLPISPPAKKPLTKIVSNLLGVEQDKLYAMPPNDIPEGDIKALTTLCELADRELVFLINWAKHIPGFPSLTLGDQMSLLQSAWMEILILGIVYRSLPYDDKLAYAEDYIMDEEHSRLVGLLDLYRAILQLVRRYKKLKVEKEEFMILKALALANSDSMYIENLEAVQKLQDLLHEALQDYELSQRHEEPRRAGKLLLTLPLLRQTAAKAVQHFYSVKLQGKVPMHKLFLEMLEAKV
Consider B1, for which the degradation_or_half_life entry in data set [1] is recorded as “decreases”. In data set [2] (control: DMSO), the “other: transcriptional activity” value was “decreases”.

B2: ESRRB: S25A (protein)
parent chain: MSSEDRHLGSSCGSFIKTEPSSPSSGIDALSHHSPSGSSDASGGFGIALSTHANGLDSPPMFAGAGLGGNPCRKSYEDCTSGIMEDSAIKCEYMLNAIPKRLCLVCGDIASGYHYGVASCEACKAFFKRTIQGNIEYNCPATNECEITKRRRKSCQACRFMKCLKVGMLKEGVRLDRVRGGRQKYKRRLDSENSPYLNLPISPPAKKPLTKIVSNLLGVEQDKLYAMPPNDIPEGDIKALTTLCELADRELVFLINWAKHIPGFPSLTLGDQMSLLQSAWMEILILGIVYRSLPYDDKLAYAEDYIMDEEHSRLVGLLDLYRAILQLVRRYKKLKVEKEEFMILKALALANSDSMYIENLEAVQKLQDLLHEALQDYELSQRHEEPRRAGKLLLTLPLLRQTAAKAVQHFYSVKLQGKVPMHKLFLEMLEAKV
Turning to B2, the degradation_or_half_life result in data set [3] and in data set [4] was “decreases” in each case. Besides, in data set [5], the “other: ubiquitination” value was “increases”. Besides, the “other: transcriptional activity” value in data set [2] (control: FLAG-ESRRB wild type) was “decreases”.
